Source: PMC12084609, “Structural insights into small-molecule agonist recognition and activation of complement receptor C3aR” (The EMBO Journal, 2025)
Substitutions are numbered along the chain they refer to. Where “and” joins values, the source holds several entries; their conditions need not be identical. Identical values can stand only once.

How the values were obtained:
C3aR R340^5.42A = molecular target: T1, C3aR R340^5.42A (Homo sapiens, UniProt Q16581, R340A); assay: GloSensor-based cAMP assay, C3aR mutant R340A; format: cell-based; conditions: for cAMP response (% Forskolin): R3405.42A, single replicates
T1 construct: expressed in transfected cells; host or cells: HEK293T
T1 sequence (Q16581 1-482 R340A): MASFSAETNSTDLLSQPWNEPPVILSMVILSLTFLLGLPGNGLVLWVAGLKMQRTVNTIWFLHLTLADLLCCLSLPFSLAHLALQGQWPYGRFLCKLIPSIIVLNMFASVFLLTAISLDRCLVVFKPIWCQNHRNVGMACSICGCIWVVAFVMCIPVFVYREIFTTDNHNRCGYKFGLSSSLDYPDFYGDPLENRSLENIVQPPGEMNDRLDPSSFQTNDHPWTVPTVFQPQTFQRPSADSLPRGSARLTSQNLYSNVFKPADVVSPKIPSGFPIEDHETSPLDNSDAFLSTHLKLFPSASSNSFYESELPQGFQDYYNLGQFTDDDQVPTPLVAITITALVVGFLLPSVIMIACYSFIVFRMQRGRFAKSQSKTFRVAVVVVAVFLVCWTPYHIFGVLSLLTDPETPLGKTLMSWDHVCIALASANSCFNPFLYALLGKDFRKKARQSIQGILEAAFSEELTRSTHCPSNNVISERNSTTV
Experimental: (§1) HEK293T cells were seeded on 6-well plates (NEST) and transfected with pGlosensor™-22F plasmids (Promega) and pcDNA3.1 plasmids encoding C3aR or its mutants an with N-terminal FLAG tag. After 48 h, cells were detached with Accutase solution (Sigma-Aldrich) and washed with PBS, and resuspended in assay buffer (CO2-independent medium with 0.5 mg mL^−1D-luciferin). 100,000–200,000 cells were seeded on 96-well white bottom plates (SPL) and incubated at 37 °C for 45 min followed by 45 min incubation at room temperature. After 90 min of incubation, basal luminescence signals were recorded. In total, 25 μl of test ligand with various concentrations and 1 μM Forskolin (Sigma-Aldrich) were treated to the cells and luminescence signals were measured by Tristar 2 LB 942 multimode reader (Berthold). […] Relative luminescence unit (%) was calculated with the signal of wells treated with vehicle as 0% and the signal of wells treated with 1 μM Forskolin as 100% (DiRaddo et al, [2014]). Nonlinear regression was performed using a three-parameter logistic equation.

C3aR WT = molecular target: T2, C3aR WT (Homo sapiens, UniProt Q16581); assay: GloSensor-based cAMP assay, WT C3aR (HEK293T); format: cell-based; conditions: for cAMP response (% Forskolin): individual replicates
T2 construct: expressed in transfected cells; host or cells: HEK293T
T2 sequence (Q16581 1-482): T1 sequence (Q16581 1-482 R340A) with A340R
Experimental: as §1

## C3a: anaphylatoxin C3a, natural peptide ligand of C3aR (a 77-amino acid peptide), Sigma-Aldrich
C3aR R340^5.42A; R340^5.42A relative to WT C3aR
  ΔpIC50 ± SE of Diff.: -1.39 ± 0.06
C3aR R340^5.42A; R340^5.42A, dose-response plot, read-out: IC50
  IC50: 47 nM
C3aR R340^5.42A; R340^5.42A, individual replicates
  pIC50 (Replicate): 7.31 and 7.68 and 7.02 and 6.95
C3aR R340^5.42A; R340^5.42A, mean of independent experiments
  pIC50 ± SEM (Mean): 7.21
C3aR R340^5.42A; Log[C3a (M)] -7
  cAMP response (% Forskolin): 25.35 % Forskolin and 26.64 % Forskolin and 21.46 % Forskolin and 37.94 % Forskolin and 13.15 % Forskolin and 37.80 % Forskolin
C3aR R340^5.42A; Log[C3a (M)] -8
  cAMP response (% Forskolin): 77.37 % Forskolin and 75.03 % Forskolin and 71.05 % Forskolin and 86.28 % Forskolin and 86.11 % Forskolin and 85.37 % Forskolin
C3aR R340^5.42A; Log[C3a (M)] -9
  cAMP response (% Forskolin): 91.29 % Forskolin and 112.12 % Forskolin and 107.73 % Forskolin and 93.95 % Forskolin and 109.05 % Forskolin and 100.87 % Forskolin
C3aR R340^5.42A; Log[C3a (M)] -10
  cAMP response (% Forskolin): 92.00 % Forskolin and 91.42 % Forskolin and 98.18 % Forskolin and 91.19 % Forskolin and 108.32 % Forskolin and 87.99 % Forskolin
C3aR R340^5.42A; Log[C3a (M)] -11
  cAMP response (% Forskolin): 98.26 % Forskolin and 112.91 % Forskolin and 108.63 % Forskolin and 92.51 % Forskolin and 96.75 % Forskolin and 86.60 % Forskolin
C3aR R340^5.42A; Log[C3a (M)] -12
  cAMP response (% Forskolin): 94.72 % Forskolin and 95.53 % Forskolin and 102.57 % Forskolin and 99.30 % Forskolin and 100.29 % Forskolin and 108.61 % Forskolin
C3aR WT; Log[ligand (M)] -7
  cAMP response (% Forskolin): 13.23 % Forskolin and 9.10 % Forskolin and 12.07 % Forskolin and 14.17 % Forskolin and 11.07 % Forskolin and 5.64 % Forskolin and 5.88 % Forskolin and 10.80 % Forskolin and 18.77 % Forskolin and 9.30 % Forskolin and 7.84 % Forskolin and 11.11 % Forskolin and 5.15 % Forskolin and 8.46 % Forskolin and 12.88 % Forskolin and 7.97 % Forskolin and 4.89 % Forskolin and 13.21 % Forskolin and 8.34 % Forskolin and 9.36 % Forskolin and 10.44 % Forskolin
C3aR WT; Log[ligand (M)] -8
  cAMP response (% Forskolin): 14.46 % Forskolin and 11.08 % Forskolin and 11.75 % Forskolin and 14.58 % Forskolin and 33.21 % Forskolin and 8.44 % Forskolin and 9.26 % Forskolin and 14.67 % Forskolin and 23.44 % Forskolin and 12.45 % Forskolin and 9.97 % Forskolin and 12.70 % Forskolin and 7.51 % Forskolin and 11.02 % Forskolin and 17.00 % Forskolin and 9.96 % Forskolin and 6.25 % Forskolin and 18.05 % Forskolin and 9.98 % Forskolin and 10.68 % Forskolin and 14.94 % Forskolin
C3aR WT; Log[ligand (M)] -9
  cAMP response (% Forskolin): 89.10 % Forskolin and 91.75 % Forskolin and 55.83 % Forskolin and 67.46 % Forskolin and 97.65 % Forskolin and 80.78 % Forskolin and 91.72 % Forskolin and 89.77 % Forskolin and 62.11 % Forskolin and 58.26 % Forskolin and 94.14 % Forskolin and 92.02 % Forskolin and 88.40 % Forskolin and 88.60 % Forskolin and 88.28 % Forskolin and 92.79 % Forskolin and 82.03 % Forskolin and 98.67 % Forskolin and 72.46 % Forskolin and 83.05 % Forskolin and 92.23 % Forskolin
C3aR WT; Log[ligand (M)] -10
  cAMP response (% Forskolin): 100.49 % Forskolin and 92.00 % Forskolin and 96.47 % Forskolin and 95.65 % Forskolin and 99.73 % Forskolin and 94.19 % Forskolin and 91.55 % Forskolin and 96.59 % Forskolin and 91.09 % Forskolin and 100.53 % Forskolin and 103.10 % Forskolin and 100.18 % Forskolin and 107.39 % Forskolin and 101.42 % Forskolin and 99.05 % Forskolin and 90.86 % Forskolin and 91.78 % Forskolin and 95.04 % Forskolin and 92.70 % Forskolin and 92.81 % Forskolin and 96.03 % Forskolin
C3aR WT; Log[ligand (M)] -11
  cAMP response (% Forskolin): 101.69 % Forskolin and 104.79 % Forskolin and 99.76 % Forskolin and 97.79 % Forskolin and 100.01 % Forskolin and 95.95 % Forskolin and 100.56 % Forskolin and 98.17 % Forskolin and 98.43 % Forskolin and 104.54 % Forskolin and 103.48 % Forskolin and 99.03 % Forskolin and 107.10 % Forskolin and 101.90 % Forskolin and 98.42 % Forskolin and 97.15 % Forskolin and 94.72 % Forskolin and 92.05 % Forskolin and 96.59 % Forskolin and 94.55 % Forskolin and 98.62 % Forskolin
C3aR WT; Log[ligand (M)] -12
  cAMP response (% Forskolin): 96.64 % Forskolin and 93.74 % Forskolin and 99.06 % Forskolin and 103.59 % Forskolin and 106.40 % Forskolin and 103.79 % Forskolin and 101.64 % Forskolin and 99.02 % Forskolin and 93.95 % Forskolin and 101.82 % Forskolin and 99.95 % Forskolin and 96.51 % Forskolin and 98.16 % Forskolin and 96.67 % Forskolin and 94.02 % Forskolin and 101.30 % Forskolin and 98.69 % Forskolin and 95.26 % Forskolin and 98.94 % Forskolin and 96.13 % Forskolin and 98.01 % Forskolin
C3aR WT; WT C3aR, 1 μM Forskolin, mean of independent experiments
  pIC50 ± SEM (Mean): 8.56
C3aR WT; WT C3aR, Figure EV1B numerical data, curve fit
  pIC50 Value: 8.52
